Laboratory results reported in US20180155451A1 (published 2018).

T1: FcγRIIa R (human, UniProt P12318 34-217)
T1 construct: extracellular domain; also called FcgRIIa R type; 2aR
T1 sequence (looked up): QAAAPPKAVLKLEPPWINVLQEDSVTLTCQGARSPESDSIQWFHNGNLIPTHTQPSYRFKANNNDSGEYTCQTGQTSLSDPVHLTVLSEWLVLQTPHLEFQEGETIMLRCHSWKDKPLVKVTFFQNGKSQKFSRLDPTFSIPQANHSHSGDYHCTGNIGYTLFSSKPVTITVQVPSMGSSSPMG

T2: FcγRIIb (human, UniProt P31994 43-217)
T2 construct: extracellular domain; also called FcgRIIb; 2b
T2 sequence (looked up): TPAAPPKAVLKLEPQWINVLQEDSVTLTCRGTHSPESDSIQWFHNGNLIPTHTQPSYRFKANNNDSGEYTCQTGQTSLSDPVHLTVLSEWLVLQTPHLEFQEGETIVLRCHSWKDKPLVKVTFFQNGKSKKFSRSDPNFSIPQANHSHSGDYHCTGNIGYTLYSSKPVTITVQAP


What was measured:
[1] = molecular target: T1, FcγRIIa R; experiment: SPR (Biacore), antibody captured, FcγR as analyte; relative binding
Method: (§1) The heterodimerized antibodies He Abs in which one of the H chains was introduced with an alteration were assayed for their binding activities to each activating FcγR and inhibitory FcγR according to the method described in Example 4. […] The activating FcγRs in FIGS. 26, 27, 28, and 29 are FcγRIa, FcγRIIa (R), FcγRIIa (H), and FcγRIIIa, respectively.
(§2) Analysis of interaction between objective antibody and the FcγR was carried out using Biacore T100 (GE Healthcare). HBS-EP+ (GE Healthcare) was used as the running buffer, and the measurement temperature was set to 25° C. Chips produced by immobilizing the antigen peptide by the amine coupling method to a Series S Sencor Chip CM5 (GE Healthcare), or alternatively, chips produced by allowing preliminarily biotinylated antigen peptides to interact with and immobilize onto a Series S Sensor Chip SA (certified) (GE Healthcare) were used. Antibodies of interest were captured onto an antigen peptide-immobilized chip, and allowed to interact to each FcγR diluted with running buffer. To regenerate and repeatedly use the chip, the antibodies captured on the chip were washed off by reacting 10 mM glycine-HCl, pH 1.5.

[2] = molecular target: T2, FcγRIIb; experiment: as above
Method: as §1, §2

[3] = molecular target: T1, FcγRIIa R; experiment: SPR; He/Con_2aR divided by He/Con_2b (FcγRIIb as reference)
Method: as §1, §2

| Binder | He/Con_2aR (IIaR binding) [1] | He/Con_2b (IIb binding) [2] | IIaR/IIb (He_2aR/2b) [3] |
| --- | --- | --- | --- |
| GpH7-A5/GpH7-B3 variant E269_07I/GpL16-k0 (antibody, human IgG1, kappa, heterodimerized antibody, mutation in the GpH7-B3 chain only; also called He Ab) heavy 1: not shown heavy 2: not shown light: DIVMTQSPLSLPVTPGEPASISCQASESLVHSNRNTYLHWYLQKPGQSPQLLIYKVSNRFSGVPDRFSGSGSGTDFTLKISRVEAEDVGVYYCSQNTHVPPTFGQGTKVEIERTVAAPSVFIFPPSDEQLKSGTASVVCLLNNFYPREAKVQWKVDNALQSGNSQESVTEQDSKDSTYSLSSTLTLSKADYEKHKVYACEVTHQGLSSPVTKSFNRGEC | 58.8 % of GpH7-A5/GpH7-B3/GpL16-k0 (=100) | 43.9 % of GpH7-A5/GpH7-B3/GpL16-k0 (=100) | 1.34 ratio |
| GpH7-A5/GpH7-B3 variant H268_08L/GpL16-k0 (antibody, human IgG1, kappa, heterodimerized antibody, mutation in the GpH7-B3 chain only; also called He Ab) heavy 1: not shown heavy 2: not shown light: DIVMTQSPLSLPVTPGEPASISCQASESLVHSNRNTYLHWYLQKPGQSPQLLIYKVSNRFSGVPDRFSGSGSGTDFTLKISRVEAEDVGVYYCSQNTHVPPTFGQGTKVEIERTVAAPSVFIFPPSDEQLKSGTASVVCLLNNFYPREAKVQWKVDNALQSGNSQESVTEQDSKDSTYSLSSTLTLSKADYEKHKVYACEVTHQGLSSPVTKSFNRGEC | 85 % of GpH7-A5/GpH7-B3/GpL16-k0 (=100) | 67.8 % of GpH7-A5/GpH7-B3/GpL16-k0 (=100) | 1.25 ratio |
| GpH7-A5/GpH7-B3 variant E269_14T/GpL16-k0 (antibody, human IgG1, kappa, heterodimerized antibody, mutation in the GpH7-B3 chain only; also called He Ab) heavy 1: not shown heavy 2: not shown light: DIVMTQSPLSLPVTPGEPASISCQASESLVHSNRNTYLHWYLQKPGQSPQLLIYKVSNRFSGVPDRFSGSGSGTDFTLKISRVEAEDVGVYYCSQNTHVPPTFGQGTKVEIERTVAAPSVFIFPPSDEQLKSGTASVVCLLNNFYPREAKVQWKVDNALQSGNSQESVTEQDSKDSTYSLSSTLTLSKADYEKHKVYACEVTHQGLSSPVTKSFNRGEC | 66 % of GpH7-A5/GpH7-B3/GpL16-k0 (=100) | 50.6 % of GpH7-A5/GpH7-B3/GpL16-k0 (=100) | 1.3 ratio |
| GpH7-A5/GpH7-B3 variant E269_13S/GpL16-k0 (antibody, human IgG1, kappa, heterodimerized antibody, mutation in the GpH7-B3 chain only; also called He Ab) heavy 1: not shown heavy 2: not shown light: DIVMTQSPLSLPVTPGEPASISCQASESLVHSNRNTYLHWYLQKPGQSPQLLIYKVSNRFSGVPDRFSGSGSGTDFTLKISRVEAEDVGVYYCSQNTHVPPTFGQGTKVEIERTVAAPSVFIFPPSDEQLKSGTASVVCLLNNFYPREAKVQWKVDNALQSGNSQESVTEQDSKDSTYSLSSTLTLSKADYEKHKVYACEVTHQGLSSPVTKSFNRGEC | 61.2 % of GpH7-A5/GpH7-B3/GpL16-k0 (=100) | 47.8 % of GpH7-A5/GpH7-B3/GpL16-k0 (=100) | 1.28 ratio |
| GpH7-A5/GpH7-B3 variant E269_15Y/GpL16-k0 (antibody, human IgG1, kappa, heterodimerized antibody, mutation in the GpH7-B3 chain only; also called He Ab) heavy 1: not shown heavy 2: not shown light: DIVMTQSPLSLPVTPGEPASISCQASESLVHSNRNTYLHWYLQKPGQSPQLLIYKVSNRFSGVPDRFSGSGSGTDFTLKISRVEAEDVGVYYCSQNTHVPPTFGQGTKVEIERTVAAPSVFIFPPSDEQLKSGTASVVCLLNNFYPREAKVQWKVDNALQSGNSQESVTEQDSKDSTYSLSSTLTLSKADYEKHKVYACEVTHQGLSSPVTKSFNRGEC | 57.6 % of GpH7-A5/GpH7-B3/GpL16-k0 (=100) | 44.7 % of GpH7-A5/GpH7-B3/GpL16-k0 (=100) | 1.29 ratio |
| GpH7-A5/GpH7-B3 variant E269_08L/GpL16-k0 (antibody, human IgG1, kappa, heterodimerized antibody, mutation in the GpH7-B3 chain only; also called He Ab) heavy 1: not shown heavy 2: not shown light: DIVMTQSPLSLPVTPGEPASISCQASESLVHSNRNTYLHWYLQKPGQSPQLLIYKVSNRFSGVPDRFSGSGSGTDFTLKISRVEAEDVGVYYCSQNTHVPPTFGQGTKVEIERTVAAPSVFIFPPSDEQLKSGTASVVCLLNNFYPREAKVQWKVDNALQSGNSQESVTEQDSKDSTYSLSSTLTLSKADYEKHKVYACEVTHQGLSSPVTKSFNRGEC | 57.2 % of GpH7-A5/GpH7-B3/GpL16-k0 (=100) | 42.9 % of GpH7-A5/GpH7-B3/GpL16-k0 (=100) | 1.33 ratio |
| GpH7-A5/GpH7-B3 variant E269_20W/GpL16-k0 (antibody, human IgG1, kappa, heterodimerized antibody, mutation in the GpH7-B3 chain only; also called He Ab) heavy 1: not shown heavy 2: not shown light: DIVMTQSPLSLPVTPGEPASISCQASESLVHSNRNTYLHWYLQKPGQSPQLLIYKVSNRFSGVPDRFSGSGSGTDFTLKISRVEAEDVGVYYCSQNTHVPPTFGQGTKVEIERTVAAPSVFIFPPSDEQLKSGTASVVCLLNNFYPREAKVQWKVDNALQSGNSQESVTEQDSKDSTYSLSSTLTLSKADYEKHKVYACEVTHQGLSSPVTKSFNRGEC | 55.5 % of GpH7-A5/GpH7-B3/GpL16-k0 (=100) | 42.5 % of GpH7-A5/GpH7-B3/GpL16-k0 (=100) | 1.3 ratio |
